From article PMC6769508 come the findings set out here.

Where a chain is given by its changes, count along the chain named.

The target in test [1] is SyKaiBDD, SyKaiB with Arg22 and Lys25 substituted with aspartate residues (Synechococcus elongatus PCC 7942) (UniProt Q79PF5).
For test [2], the target named is SyKaiB, wild-type KaiB of Synechococcus elongatus PCC 7942 (Synechococcus elongatus PCC 7942) (UniProt Q79PF5).

B1: SyKaiBDD, SyKaiB with Arg22 and Lys25 substituted with aspartate residues (natural protein)
chain: MSPRKTYILKLYVAGNTPNSVDALDTLKNILEVEFQGVYALKVIDVLKNPQLAEEDKILATPTLAKVLPLPVRRIIGDLSDREKVLIGLDLLYGELQDSDDF
The molecule B1 yielded a period of the in vitro oscillation of the phosphorylated KaiC level (SyKaiA 1.5 µM, SyKaiC 3.4 µM, SyKaiBDD 4.2 µM, 30 °C) in test [1] of 30.4 h.

B2: SyKaiB, wild-type KaiB of Synechococcus elongatus PCC 7942 (natural protein)
chain: B1 chain with D22R, D25K
The molecule B2 had a period of the in vitro oscillation of the phosphorylated KaiC level (SyKaiA 1.5 µM, SyKaiC 3.4 µM, SyKaiBWT 4.2 µM, 30 °C) in test [2] of 23.2 h.
